B1: nAb 2H3 (anti-HPV58 neutralizing monoclonal antibody, full length) (antibody, V domains shown)
VH: QVQLLQSGAELVRPGSSVKISCKASGYVFTSYWMHWVKQRPGQGLEWIGQIYPGDGGTHYNGNFRDKATLTADKSSSTAYMHLSSLTSEDSAVYFCARKIYDGYGFSYWGQGTLVTVS
VL: DIQMTQSPASLSVSVGETVTITCRASENIYSNLIWYQQKQGKSPQLLVYAATNLADGVPSRFSGSGSGTQYSLKINSLQSEDFGSYYCQHFWGTPLTFGAGTKLEIKR
notes: variable domain of the heavy chain of nAb 2H3; variable domain of the light chain of nAb 2H3; Mouse IgG1; source: mouse hybridoma, ascites of BALB/c mice, purified (protein A-agarose)
B2: Fab fragment of nAb 2H3 (Fab, V domains shown)
VH: QVQLLQSGAELVRPGSSVKISCKASGYVFTSYWMHWVKQRPGQGLEWIGQIYPGDGGTHYNGNFRDKATLTADKSSSTAYMHLSSLTSEDSAVYFCARKIYDGYGFSYWGQGTLVTVS
VL: DIQMTQSPASLSVSVGETVTITCRASENIYSNLIWYQQKQGKSPQLLVYAATNLADGVPSRFSGSGSGTQYSLKINSLQSEDFGSYYCQHFWGTPLTFGAGTKLEIKR
notes: variable domain of the heavy chain of nAb 2H3; variable domain of the light chain of nAb 2H3; Fab of a mouse IgG1; the Fab model in the structure is a homology model; also called Fab 2H3; 2H3 Fab; source: papain digest of the purified nAb, separated from Fc on a TSKgel DEAE-5PW column
B3: nAb A4B4 (anti-HPV58 neutralizing monoclonal antibody, full length) (antibody, V domains shown)
VH: QVTLKESGPGILQPSQTLSLTCSFSGFSLSTSGMGVGWIRQPSGKGLEWLAHIWWNDDKNYHPALKSRLTISKDTSSNRVFLNIASVDTADTATYYCARIHYVTDALDYWGQGTSVTVS
VL: DIVMSQSPSSLAVSVGEKVTMSCKSSQSLLYSSIQKNYLAWYQQKPGQSPKLLIYWASIRESGVPDRFTGSGSGTDFTLTISSVKAEDLAVYYCQRYYGYPWTFGGGTKLEIKR
notes: variable domain of the heavy chain of nAb A4B4; variable domain of the light chain of nAb A4B4; Mouse IgG2a; source: mouse hybridoma, ascites of BALB/c mice, purified (protein A-agarose)
B4: Fab fragment of nAb A4B4 (Fab, V domains shown)
VH: QVTLKESGPGILQPSQTLSLTCSFSGFSLSTSGMGVGWIRQPSGKGLEWLAHIWWNDDKNYHPALKSRLTISKDTSSNRVFLNIASVDTADTATYYCARIHYVTDALDYWGQGTSVTVS
VL: DIVMSQSPSSLAVSVGEKVTMSCKSSQSLLYSSIQKNYLAWYQQKPGQSPKLLIYWASIRESGVPDRFTGSGSGTDFTLTISSVKAEDLAVYYCQRYYGYPWTFGGGTKLEIKR
notes: variable domain of the heavy chain of nAb A4B4; variable domain of the light chain of nAb A4B4; Fab of a mouse IgG2a; the Fab model in the structure is a homology model; also called Fab A4B4; A4B4 Fab; source: papain digest of the purified nAb, separated from Fc on a TSKgel DEAE-5PW column
B5: nAb 5G9 (anti-HPV58 neutralizing monoclonal antibody, full length) (antibody, V domains shown)
VH: EVMLVESGGGLVKPGGSLKLSCVASGFTFSDYAMSWGRQTPEKRLEWVATISSGGVSTYHPDSVKGRFTMSRDNAKNTLYLQMSSLRSEDTAKYYCARGGGRYAMDYWGQGTSVTVS
VL: DVQITQSPSYLAASPGETITINCRASKSINKYLAWYQEKPGTTNKLLIYSGSTLQSGIPSRFSGRGSGTDFTLTISSLEPEDLAVYYCQQYNEYPWTFGGGTKLEIKR
notes: variable domain of the heavy chain of nAb 5G9; variable domain of the light chain of nAb 5G9; Mouse IgG2a; source: mouse hybridoma, ascites of BALB/c mice, purified (protein A-agarose)
B6: Fab fragment of nAb 5G9 (Fab, V domains shown)
VH: EVMLVESGGGLVKPGGSLKLSCVASGFTFSDYAMSWGRQTPEKRLEWVATISSGGVSTYHPDSVKGRFTMSRDNAKNTLYLQMSSLRSEDTAKYYCARGGGRYAMDYWGQGTSVTVS
VL: DVQITQSPSYLAASPGETITINCRASKSINKYLAWYQEKPGTTNKLLIYSGSTLQSGIPSRFSGRGSGTDFTLTISSLEPEDLAVYYCQQYNEYPWTFGGGTKLEIKR
notes: variable domain of the heavy chain of nAb 5G9; variable domain of the light chain of nAb 5G9; Fab of a mouse IgG2a; the Fab model in the structure is a homology model; also called Fab 5G9; 5G9 Fab; source: papain digest of the purified nAb, separated from Fc on a TSKgel DEAE-5PW column

Tests used:
[1] = target: HPV58 virus-like particles (VLPs) self-assembled from recombinant HPV58 L1 (human papillomavirus type 58, UniProt P26535 1-524, The printed source is GenBank AFS33402.1, which may differ from P26535 at isolate-variant positions. The start is taken by convention at MSVWRPSE (Met27 of P26535), and paper numbering + 26 = P26535 n); assay: ELISA; inhibition ELISA; HPV58 VLPs coated; diluted monoclonal antibody 1 h at 37°C, then rabbit standard antiserum against HPV58 VLPs 30 min at 37°C; HRP goat anti-rabbit IgG; inhibition rate; conditions: both partners purified
[2] = target: T1, HPV58 pseudovirus (PsV58) capsid (human papillomavirus type 58, UniProt P26535 1-524; P26538 1-472); assay: cell-based or functional assay
T1 sequence 1: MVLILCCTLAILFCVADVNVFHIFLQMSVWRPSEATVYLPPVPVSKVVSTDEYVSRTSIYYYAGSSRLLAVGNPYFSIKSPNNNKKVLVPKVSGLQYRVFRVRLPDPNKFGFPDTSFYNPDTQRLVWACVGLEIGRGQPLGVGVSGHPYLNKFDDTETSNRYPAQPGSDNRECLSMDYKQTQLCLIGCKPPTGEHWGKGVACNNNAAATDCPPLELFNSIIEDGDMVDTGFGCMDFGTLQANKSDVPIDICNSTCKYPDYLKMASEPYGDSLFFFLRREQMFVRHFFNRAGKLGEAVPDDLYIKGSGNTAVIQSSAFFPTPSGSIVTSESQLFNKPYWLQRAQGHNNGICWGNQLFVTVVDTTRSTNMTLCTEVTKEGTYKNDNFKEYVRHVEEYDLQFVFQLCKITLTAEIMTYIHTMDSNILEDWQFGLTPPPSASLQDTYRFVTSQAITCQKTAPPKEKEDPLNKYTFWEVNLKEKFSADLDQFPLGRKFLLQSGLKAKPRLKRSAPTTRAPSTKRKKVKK
T1 sequence 2: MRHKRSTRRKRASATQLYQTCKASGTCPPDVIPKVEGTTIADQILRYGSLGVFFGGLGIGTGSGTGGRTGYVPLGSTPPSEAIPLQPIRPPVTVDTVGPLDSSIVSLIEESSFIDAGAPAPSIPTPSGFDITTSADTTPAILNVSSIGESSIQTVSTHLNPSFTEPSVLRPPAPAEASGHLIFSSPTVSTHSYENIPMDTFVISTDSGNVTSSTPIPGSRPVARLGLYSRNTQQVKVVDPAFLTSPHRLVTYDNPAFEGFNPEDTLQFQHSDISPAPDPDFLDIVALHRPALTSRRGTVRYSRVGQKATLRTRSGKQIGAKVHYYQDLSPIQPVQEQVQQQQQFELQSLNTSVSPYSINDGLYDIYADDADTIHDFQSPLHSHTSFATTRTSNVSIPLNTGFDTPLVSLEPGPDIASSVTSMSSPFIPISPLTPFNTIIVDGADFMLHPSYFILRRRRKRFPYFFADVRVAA

[3] = target: T2, HPV58 pseudovirus (PsV58) capsid (human papillomavirus type 58, UniProt P26535 1-524; P26538 1-472, T=7d capsid of 72 L1 pentamers. L2 copy number is unknown and no L2 density was seen. Expressed from p58sheLL, whose L1 and L2 may carry isolate-variant residues.); assay: cryo-EM structure; purified PsV58 mixed with Fab in 1.5-fold excess (pseudovirus-Fab molar ratio 1:540), 37°C for 2 h; icosahedral and 2-fold subparticle reconstruction; conditions: both partners purified
[4] = target: T2, HPV58 pseudovirus (PsV58) capsid; assay: cell-based or functional assay

Binder	inhibition rate of the nAb against rabbit antiserum to HPV58 VLPs [1] [%]	neutralization titer, pseudovirus-based neutralization assay in 293FT cells (first well 1 μg/ml nAb, 2-fold dilutions) [2]	stoichiometry N [3]	IC50 of neutralization of PsV58 by the Fab form [4] [µg/mL]
B1	87	51200		
B2			4 Fabs per asymmetric unit	
B3	71	12800		
B4			4 Fabs per asymmetric unit	1.28
B5	59	410000		
B6			1 Fab per capsomer	

— publication PMC8092703, “Structural Basis for the Shared Neutralization Mechanism of Three Classes of Human Papillomavirus Type 58 Antibodies with Disparate Modes of Binding” (Journal of Virology, 2021)
